Results on 2 molecules are retold here after patent US9631180B2, “Recombinant manganese oxidase” (OREGON HEALTH & SCIENCE UNIVERSITY, priority 2013, dated 2017).

The test system of one data set is B. licheniformis CotA. Particulars: described in Koschorreck K et al, 2008; cited from earlier work.
In a further data set the test system is Bacillus subtilis CotA. Particulars: described in Durão P et al, 2008; cited from earlier work.
Data set [1] in a line: Fe(II) oxidation kinetics, FerroZine quench assay. Type of data set: biochemical. Particulars: pH 5. As to the method: (§1) Kinetic experiments were performed on the Molecular Devices SpectraMax® M2 microplate reader spectrophotometer at 22° C. with purified protein. […] Reactions were carried out with 10 μg Mnx (final 240 nM) 100 mM in phosphate-citrate buffer pH 3-8 and 20 mM CHES, HEPES, and MES at pH 7-10. Dimethoxyphenol (DMP) oxidation was followed by measuring the increase in absorbance at 468 nm and ε=49.6 mM-1 cm-1. These assays were performed in at least two independent trials in triplicate. Fe(II) (ferrous ammonium sulfate) oxidation was measured by quenching 200 μl reactions with 50 μl of the Fe(II) chelating colorimetric assay FerroZine® (15 mM) and a ferrous ammonium sulfate standard curve, noting the absorbance at 570 nm. Fe(II) oxidation reactions were performed with 10 μg recombinant Mn oxidase complex in 100 mM Na acetate-acetic acid buffer (pH 4-5.5). Mn(II) (MnCl2) oxidation in 20 mM HEPES (pH 7-8.5) was measured by quenching 5 μl of 200 μl reactions with 195 μl leucoberbelin blue (LBB) colorimetric reagent and reading the absorbance at 618 nm. […] These slopes were converted to the appropriate kinetic units, plotted, and fit with nonlinear regressions determined by comparing best fit values in the same software. KM and Vmax were determined and reported as KM and kcat=Vmax/[enzyme].

Data set [2] in a line: Mn(II) oxidation kinetics, leucoberbelin blue (LBB) quench assay. The data set is classed as biochemical. As to the method: Kinetic experiments were performed on the Molecular Devices SpectraMax® M2 microplate reader spectrophotometer at 22° C. with purified protein. […] Reactions were carried out with 10 μg Mnx (final 240 nM) 100 mM in phosphate-citrate buffer pH 3-8 and 20 mM CHES, HEPES, and MES at pH 7-10. Dimethoxyphenol (DMP) oxidation was followed by measuring the increase in absorbance at 468 nm and ε=49.6 mM-1 cm-1. These assays were performed in at least two independent trials in triplicate. Fe(II) (ferrous ammonium sulfate) oxidation was measured by quenching 200 μl reactions with 50 μl of the Fe(II) chelating colorimetric assay FerroZine® (15 mM) and a ferrous ammonium sulfate standard curve, noting the absorbance at 570 nm. Fe(II) oxidation reactions were performed with 10 μg recombinant Mn oxidase complex in 100 mM Na acetate-acetic acid buffer (pH 4-5.5). Mn(II) (MnCl2) oxidation in 20 mM HEPES (pH 7-8.5) was measured by quenching 5 μl of 200 μl reactions with 195 μl leucoberbelin blue (LBB) colorimetric reagent and reading the absorbance at 618 nm. Working LBB reagent was prepared by diluting concentrated stock (100 mg LBB in 25 ml 0.4% NaOH) 1:10 into 1% acetic acid. A KMnO4 standard curve was used to determine MnO2 oxide equivalent concentration. The metal substrate assays were performed in five independent trials then the high and low values were discarded from each concentration. The linear part of each curve was fit plotted and fit with a linear regression in GraphPad Prism®. These slopes were converted to the appropriate kinetic units, plotted, and fit with nonlinear regressions determined by comparing best fit values in the same software. KM and Vmax were determined and reported as KM and kcat=Vmax/[enzyme].

A short description of data set [3]: O2 consumption during Mn oxidation, Clark type electrode. The data set is classed as biochemical. Conditions: for lag time before O2 consumption is detected: after addition of MnCl2, across all runs. The procedure:
Also indicative of MCOs is the consumption of O2 and its reduction to H2O, terminating electron transfer at the trinuclear Cu center. O2 consumption was measured on a Clark type electrode during Mn oxidation by the recombinant Mn oxidase complex. Following the addition of MnCl2 to the enzyme, there is about a 30 s lag time before O2 consumption is detected across all runs (FIG. 7A). Starting with a higher concentration of MnCl2, results in a faster initial velocity of O2 consumption (FIG. 7B). […] This stoichiometry supports the MCO mechanism of the four electron reduction required to generate 2 mol H2O from 1 mol O2.
Oxygen consumption was measured on a Rank Brothers LTD model 10 electrode with the polarizing voltage set to 630 mV. The 2 ml water-jacketed reaction cell was kept at 37° C. using a water bath. The instrument was calibrated by taking a zero measurement with Ar purged water and a 100% measurement with atmospheric oxygenated water assuming 214 μM O2 at […]. A computer interfaced with the electrode measured 02 every 1 s. Data collection began about 1 min before 10 μL of 1 mg/ml Mnx protein (^˜24 nM final if mass of recombinant Mn oxidase complex is 211 kDa) was added through the 2 mm diameter opening in the cap and allowed to equilibrate with 37° C. 20 mM HEPES pH 7.8 50 mM NaCl. Another minute of baseline reading was taken before adding 10 μL of various concentrations of MnCl2. The data was plotted Time (min) vs. % O2 remaining, if addition of MnCl2 is t=0. The initial O2 consumption velocities of all runs were plotted against starting MnCl2 concentration. Total O2 consumed was calculated by taking the difference of final from initial O2 concentrations then plotted against MnCl2 concentration and fitted with a linear regression, forced through the xy origin.

The nature of data set [4]: 2,6-DMP oxidation kinetics, absorbance at 468 nm. Particulars: Phosphate-citrate buffer. Type of data set: biochemical. The procedure:
as §1

As usually defined, the kcat is the number of substrate molecules converted per active site and unit of time at saturation. Broadly, the Km is the substrate concentration at which the rate is half of its maximum. For `CCn1c(=NN=c2sc3cc(S(=O)(=O)O)ccc3n2CC)sc2cc(S(=O)(=O)O)ccc21` [ABTS, 2,2′-azino-bis(3-ethylbenzthiazoline-6-sulphonic acid)], the kcat in the data set with B. licheniformis CotA is 322 s⁻¹. Moreover, in the data set on Bacillus subtilis CotA, the Km is 6.5 µM and the kcat is 83 s⁻¹.

B1: recombinant Mn oxidase complex: recombinantly produced Bacillus sp. PL-12 manganese oxidase complex comprising MnxG, MnxE and MnxF, expressed in E. coli (protein, listed as Bacillus sp.)
chain 1: HVFHYHVHQWLGDSSNINAEILDAQSISPQTHYSIQPLYGLGSLHGAIGDSIIHCHLYPHFGIGMWGINRVFDTLQDGSQCYPNGVRIDALKPLPDRPAPPKPTREKPGFPNFIPGKVGYKAPRPPLGIVGGREMTELERNAAIPNPRPGAVFVDPCLDQDPVVVEFNVSAIEMPVVYNKQGWHDPKARFYVMDEDLDDILSGKKEPEPLVFHVPAGTCIRMNYTNRMPHILDGDAFQLVTRTYENGFHIHFVKFDVLACDGGNVGWNYDSAVLPGQTIRYEWYAETELKAWFFHDHLF
chain 2: MHDSPLKSLSAASNVASVNDPLFDFFNKHMGKQILIITESSQLNILGQTFRPIFCGKVAEVEPGHLTLSPVTIKILNAPFHKFPIPLSIPFEKIAHFTTDVDCSMRIPLV
chain 3: MEALFPMSTDYSKMTDVNEIHDSAILEHFRNGIGHKTLVISPSYPYMFVGIIKELIGDTVMIDVETTHFAQLENREWYIHIHNIEVFYIERPGAPKIPKLEDY
In the case of B1, in data set [1], the “Fe(II) kcat” value was 0.0744 ± 0.00779 s⁻¹ and the Km stood at 9 µM. Also, in data set [2], the “pH optimum of Mn oxidation” value came out at 7.8. Moreover, in data set [2] (HEPES dialyzed protein), the “Mn(II) K0.5” value was determined as 123 ± 7.00 µM and the “Mn(II) kcat” value amounted to 16.1 ± 0.941 s⁻¹. In data set [2] (Tris dialyzed protein), the “Mn(II) K0.5” value turned out to be 134.6 ± 9.16 µM and the “Mn(II) kcat” value was determined as 12.9 ± 0.758 s⁻¹. The “lag time before O2 consumption is detected” value in data set [3] is roughly 30 s. Further, the “lag time before O2 consumption is detected” value in data set [3] (listed as recombinant Mnx complex) is recorded as “about 30 s”. For the same molecule, the “slope of MnCl2 added vs. O2 consumed” value in data set [3] (linear regression forced through the origin, 37° C., HEPES pH 7.8) was “about 0.252±0.0149”. The “2,6-DMP oxidation activity” value in data set [4] is “inactive”.
